This passage reports binding signal (% DNA pulled down) results from patent US9677128.

This series has as its target T1, J-binding protein 1 (JBP1) (Crithidia fasciculata) (UniProt Q9U6M2).
T1 sequence: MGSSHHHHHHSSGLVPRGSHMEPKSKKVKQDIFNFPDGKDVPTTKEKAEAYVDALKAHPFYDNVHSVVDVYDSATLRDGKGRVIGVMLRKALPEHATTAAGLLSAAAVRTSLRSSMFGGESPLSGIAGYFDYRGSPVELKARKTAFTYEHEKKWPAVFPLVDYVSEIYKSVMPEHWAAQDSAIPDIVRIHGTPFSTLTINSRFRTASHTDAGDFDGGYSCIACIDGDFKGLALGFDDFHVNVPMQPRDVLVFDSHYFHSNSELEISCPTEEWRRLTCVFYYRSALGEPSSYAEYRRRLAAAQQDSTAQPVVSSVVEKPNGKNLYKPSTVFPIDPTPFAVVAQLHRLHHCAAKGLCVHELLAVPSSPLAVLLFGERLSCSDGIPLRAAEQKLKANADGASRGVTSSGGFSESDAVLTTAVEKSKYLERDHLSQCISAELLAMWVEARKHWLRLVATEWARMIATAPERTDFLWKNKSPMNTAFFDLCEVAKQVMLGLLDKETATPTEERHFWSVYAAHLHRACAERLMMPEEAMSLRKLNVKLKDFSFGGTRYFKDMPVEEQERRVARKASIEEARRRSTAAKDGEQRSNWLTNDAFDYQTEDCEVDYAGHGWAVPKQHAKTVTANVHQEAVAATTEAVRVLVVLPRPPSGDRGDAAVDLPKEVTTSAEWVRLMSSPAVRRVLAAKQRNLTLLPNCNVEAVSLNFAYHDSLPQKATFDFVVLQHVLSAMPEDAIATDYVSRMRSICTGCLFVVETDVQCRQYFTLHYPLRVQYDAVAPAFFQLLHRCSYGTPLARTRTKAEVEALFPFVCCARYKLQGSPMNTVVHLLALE
Nature of the series: pulldown. Conditions: beta-glucosyl-5hmC in place of all C (outside primers); 132 ng JBP1 beads, 10 ng DNA, 150 mM NaCl, 10 mM Tris pH 8.0, 2 mM EDTA, room temperature.

Where only a bound is given, the exact number is not on record here.

Substance pUC18 2.7 kb PCR product, beta-glu-5hmC yielded a binding signal (% DNA pulled down) of less than 6.
